From publication PMC11535040, “Requirement of Nek2a and cyclin A2 for Wapl-dependent removal of cohesin from prophase chromatin” (The EMBO Journal, 2024)

Biological target: T1, Flag-tagged Pds5b-Ser1177,1182,1209Ala (3A) phosphorylated by Cdk1/2-cyclin A2 (human, UniProt Q9NTI5 1-1447, Ser1177,1182,1209Ala | Ser1177,1182,1209Ala | Ser1177,1182,1209Ala, phosphoserine at 1161 and 1166 (by Cdk1/2-cyclin A2))
T1 construct: Pds5b, human; also called Pds5b-3A
T1 sequence (looked up): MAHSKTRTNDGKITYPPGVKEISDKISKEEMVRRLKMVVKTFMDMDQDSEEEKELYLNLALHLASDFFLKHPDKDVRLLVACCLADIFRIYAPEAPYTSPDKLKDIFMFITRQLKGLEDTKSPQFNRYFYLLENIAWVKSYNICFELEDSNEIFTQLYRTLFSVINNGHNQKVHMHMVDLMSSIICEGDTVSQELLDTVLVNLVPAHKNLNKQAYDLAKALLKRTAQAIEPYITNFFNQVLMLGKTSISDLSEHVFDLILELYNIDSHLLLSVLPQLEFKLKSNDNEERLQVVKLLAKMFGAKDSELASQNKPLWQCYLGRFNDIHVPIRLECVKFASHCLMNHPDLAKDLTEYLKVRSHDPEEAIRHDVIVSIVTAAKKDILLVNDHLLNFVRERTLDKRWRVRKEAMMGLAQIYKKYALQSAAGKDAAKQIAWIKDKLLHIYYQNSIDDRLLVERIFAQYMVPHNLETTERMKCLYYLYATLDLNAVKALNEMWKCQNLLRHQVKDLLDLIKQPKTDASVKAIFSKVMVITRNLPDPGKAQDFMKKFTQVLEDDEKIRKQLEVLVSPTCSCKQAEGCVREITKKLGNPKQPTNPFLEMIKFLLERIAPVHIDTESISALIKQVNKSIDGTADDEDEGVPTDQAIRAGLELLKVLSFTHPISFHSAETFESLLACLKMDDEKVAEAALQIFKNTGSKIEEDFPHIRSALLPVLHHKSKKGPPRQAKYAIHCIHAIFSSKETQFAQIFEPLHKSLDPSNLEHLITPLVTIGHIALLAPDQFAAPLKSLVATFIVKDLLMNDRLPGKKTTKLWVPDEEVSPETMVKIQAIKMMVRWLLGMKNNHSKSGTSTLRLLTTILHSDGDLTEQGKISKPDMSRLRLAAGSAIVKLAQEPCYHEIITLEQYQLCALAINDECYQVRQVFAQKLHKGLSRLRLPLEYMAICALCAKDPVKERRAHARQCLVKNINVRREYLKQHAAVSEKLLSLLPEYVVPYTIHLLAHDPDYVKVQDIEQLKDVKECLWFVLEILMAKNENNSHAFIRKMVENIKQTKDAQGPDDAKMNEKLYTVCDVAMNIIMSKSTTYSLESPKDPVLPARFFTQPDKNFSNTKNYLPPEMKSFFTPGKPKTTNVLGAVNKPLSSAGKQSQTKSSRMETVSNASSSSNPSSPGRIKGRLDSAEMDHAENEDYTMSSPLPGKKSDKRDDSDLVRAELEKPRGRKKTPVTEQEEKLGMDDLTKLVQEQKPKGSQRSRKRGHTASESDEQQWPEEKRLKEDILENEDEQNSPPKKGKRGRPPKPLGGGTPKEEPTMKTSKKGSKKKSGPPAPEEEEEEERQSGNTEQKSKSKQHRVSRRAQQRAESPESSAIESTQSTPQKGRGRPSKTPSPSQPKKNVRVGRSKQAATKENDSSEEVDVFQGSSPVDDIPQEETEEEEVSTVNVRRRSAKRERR
Test: pull-down; Flag-Pds5b variants affinity-purified from Nek2a- and cyclin A2-free prometaphase cells, incubated on the beads with recombinant Nek2a and/or Cdk1/2-cyclin A2 and ATP, washed, then incubated with recombinant Wapl (2 µl) and sororin (0.3 µg) in 15 µl cleavage buffer without ATP, 20 min at 37 °C; immunoblotting
Details: both partners purified

binding result: binds
B1: recombinant human Wapl (natural protein, UniProt Q7Z5K2 1-1190, looked up)
chain: MTSRFGKTYSRKGGNGSSKFDEVFSNKRTTLSTKWGETTFMAKLGQKRPNFKPDIQEIPKKPKVEEESTGDPFGFDSDDESLPVSSKNLAQVKCSSYSESSEAAQLEEVTSVLEANSKISHVVVEDTVVSDKCFPLEDTLLGKEKSTNRIVEDDASISSCNKLITSDKVENFHEEHEKNSHHIHKNADDSTKKPNAETTVASEIKETNDTWNSQFGKRPESPSEISPIKGSVRTGLFEWDNDFEDIRSEDCILSLDSDPLLEMKDDDFKNRLENLNEAIEEDIVQSVLRPTNCRTYCRANKTKSSQGASNFDKLMDGTSQALAKANSESSKDGLNQAKKGGVSCGTSFRGTVGRTRDYTVLHPSCLSVCNVTIQDTMERSMDEFTASTPADLGEAGRLRKKADIATSKTTTRFRPSNTKSKKDVKLEFFGFEDHETGGDEGGSGSSNYKIKYFGFDDLSESEDDEDDDCQVERKTSKKRTKTAPSPSLQPPPESNDNSQDSQSGTNNAENLDFTEDLPGVPESVKKPINKQGDKSKENTRKIFSGPKRSPTKAVYNARHWNHPDSEELPGPPVVKPQSVTVRLSSKEPNQKDDGVFKAPAPPSKVIKTVTIPTQPYQDIVTALKCRREDKELYTVVQHVKHFNDVVEFGENQEFTDDIEYLLSGLKSTQPLNTRCLSVISLATKCAMPSFRMHLRAHGMVAMVFKTLDDSQHHQNLSLCTAALMYILSRDRLNMDLDRASLDLMIRLLELEQDASSAKLLNEKDMNKIKEKIRRLCETVHNKHLDLENITTGHLAMETLLSLTSKRAGDWFKEELRLLGGLDHIVDKVKECVDHLSRDEDEEKLVASLWGAERCLRVLESVTVHNPENQSYLIAYKDSQLIVSSAKALQHCEELIQQYNRAEDSICLADSKPLPHQNVTNHVGKAVEDCMRAIIGVLLNLTNDNEWGSTKTGEQDGLIGTALNCVLQVPKYLPQEQRFDIRVLGLGLLINLVEYSARNRHCLVNMETSCSFDSSICSGEGDDSLRIGGQVHAVQALVQLFLERERAAQLAESKTDELIKDAPTTQHDKSGEWQETSGEIQWVSTEKTDGTEEKHKKEEEDEELDLNKALQHAGKHMEDCIVASYTALLLGCLCQESPINVTTVREYLPEGDFSIMTEMLKKFLSFMNLTCAVGTTGQKSISRVIEYLEHC
notes: Wapl, human; insert by PCR on human cDNA; Isolated from mitotically arrested cells; also called GFP-SUMOstar-Wapl; source: Hek293T, transiently transfected, taxol-arrested; not shown: GFP, N-terminal, cleaved; SUMOstar, N-terminal, cleaved
